Measured values reported in patent US7456007.

Assays:
[1] = target: Swedish mutant P13-P5′ peptide with P1′ aspartic acid replaced with a leucine (D→L), P05067
[2] = target: Swedish mutant P13-P5′ peptide with P1′ aspartic acid replaced with a valine (D→V), P05067
Swedish mutant P13-P5′ peptide with P1′ aspartic acid replaced with a valine (D→V), P05067, sequence (P05067 whole entry, looked up, change not shown, tested part not stated): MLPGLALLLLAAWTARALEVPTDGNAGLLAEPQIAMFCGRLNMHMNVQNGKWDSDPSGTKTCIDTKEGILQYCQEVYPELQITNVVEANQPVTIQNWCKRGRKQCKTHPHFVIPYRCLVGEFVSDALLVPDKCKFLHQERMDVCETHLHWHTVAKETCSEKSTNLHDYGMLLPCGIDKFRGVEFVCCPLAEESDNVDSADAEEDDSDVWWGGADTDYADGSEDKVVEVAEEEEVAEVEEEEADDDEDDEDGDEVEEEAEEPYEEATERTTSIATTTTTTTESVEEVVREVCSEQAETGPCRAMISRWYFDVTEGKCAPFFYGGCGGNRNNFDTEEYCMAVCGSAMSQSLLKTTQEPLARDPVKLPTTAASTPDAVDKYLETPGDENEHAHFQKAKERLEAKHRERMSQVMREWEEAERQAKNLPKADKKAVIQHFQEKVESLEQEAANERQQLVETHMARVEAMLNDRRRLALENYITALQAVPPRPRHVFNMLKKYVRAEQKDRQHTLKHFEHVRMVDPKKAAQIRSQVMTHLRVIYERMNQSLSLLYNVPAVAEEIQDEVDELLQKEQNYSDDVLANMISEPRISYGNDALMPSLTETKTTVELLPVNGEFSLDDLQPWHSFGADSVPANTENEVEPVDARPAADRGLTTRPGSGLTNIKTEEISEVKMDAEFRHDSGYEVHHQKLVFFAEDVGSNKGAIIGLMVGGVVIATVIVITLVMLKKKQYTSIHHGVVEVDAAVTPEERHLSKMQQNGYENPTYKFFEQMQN

Swedish mutant P13-P5′ peptide with P1′ aspartic acid replaced with a leucine (D→L), P05067, sequence (P05067 whole entry, looked up, change not shown, tested part not stated): as above

B1: naturally occurring β-secretase purified from human brain (protein)
chain: ETDEEPEEPGRRGSFVEMVDNLRGKSGQGYYVEMTVGSPPQTLNILVDTGSSNFAVGAAPHPFLHRYYQRQLSSTYRDLRKGVYVPYTQGKWEGELGTDLVSIPHGPNVTVRANIAAITESDKFFINGSNWEGILGLAYAEIARPDDSLEPFFDSLVKQTHVPNLFSLQLCGAGFPLNQSEVLASVGGSMIIGGIDHSLYTGSLWYTPIRREWYYEVIIVRVEINGQDLKMDCKEYNYDKSIVDSGTTNLRLPKKVFEAAVKSIKAASSTEKFPDGFWLGEQLVCWQAGTTPWNIFPVISLYLMGEVTNQSFRITILPQQYLRPVEDVATSQDDCYKFAISQSSTGTVMGAVIMEGFYVVFDRARKRIGFAVSACHVHDEFRTAAVEGPFVTLDMEDCGYNIPQTDESTLMTIAYVMAAICALFMLPLCLMVCQWRCLRCLRQQHDDFADDISLLK
[1]
  substrate concentration dependence of hydrolysis by brain β-secretase: show saturation at a lower concentration than the parent Swedish peptide
[2]
  substrate concentration dependence of hydrolysis by brain β-secretase: show saturation at a lower concentration than the parent Swedish peptide
